Consider 1 substance from patent US20040005554A1.

Assay [1] deals with ARP-GFP fusion protein (human ARP, Leu form from pBSSKII ARP.4, fused to EGFP of pEGFP-N2) (human). The experiment in a line: anti-GFP plate capture, detection with anti-FLAG M2 and anti-mouse IgG-AP; concentrated medium of cotransfection.
The target is the same in assay [2]. The experiment in a line: anti-GFP plate capture, detection with anti-FLAG M2 and anti-mouse IgG-AP; unconcentrated medium of cotransfection.

Sequence of FLAG-BRP fusion protein (N-terminal FLAG tag on predicted mature human BRP, secreted through the mouse preprotrypsin signal) (Q86YW7 other isoform, or with tags, fused parts or gaps limits assumed): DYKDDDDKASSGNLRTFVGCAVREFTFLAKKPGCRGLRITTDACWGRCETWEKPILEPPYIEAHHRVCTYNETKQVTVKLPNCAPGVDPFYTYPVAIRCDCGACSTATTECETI

For “FLAG-BRP fusion protein (N-terminal FLAG tag on predicted mature human BRP, secreted through the mouse preprotrypsin signal) (from UniProt Q86YW7 25-130)”, the figures for the Abs 405 nm in assay [1] and in assay [2] were 1.41 Abs 405 nm and 0.972 Abs 405 nm, respectively.
